Experimental findings from patent US20210024625A1 (published 2021) are described below.

Test in all cases: cell-based or functional assay
Experiment [1] deals with T1, PfRH5 from Plasmodium falciparum strain 7G8 (Plasmodium falciparum).
The target in experiment [2] is T2, PfRH5 from Plasmodium falciparum strain 3D7 (Plasmodium falciparum, UniProt Q8IFM5 25-526).
T2 sequence: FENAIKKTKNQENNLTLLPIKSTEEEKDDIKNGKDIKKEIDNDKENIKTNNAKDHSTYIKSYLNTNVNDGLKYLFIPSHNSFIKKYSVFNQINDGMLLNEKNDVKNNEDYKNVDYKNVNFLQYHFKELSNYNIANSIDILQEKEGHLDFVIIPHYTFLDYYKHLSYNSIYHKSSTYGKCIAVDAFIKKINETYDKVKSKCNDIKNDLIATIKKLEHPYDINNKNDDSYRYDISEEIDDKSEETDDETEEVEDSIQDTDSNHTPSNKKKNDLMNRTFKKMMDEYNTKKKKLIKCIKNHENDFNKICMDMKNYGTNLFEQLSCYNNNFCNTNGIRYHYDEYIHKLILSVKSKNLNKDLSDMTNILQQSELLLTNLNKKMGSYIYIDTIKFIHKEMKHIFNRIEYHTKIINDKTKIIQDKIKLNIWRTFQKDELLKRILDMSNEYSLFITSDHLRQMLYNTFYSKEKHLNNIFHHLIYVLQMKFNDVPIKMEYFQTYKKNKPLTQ

Experiment [3] addresses T3, PfRH5 from Plasmodium falciparum strain Dd2 (Plasmodium falciparum).
The target of experiment [4] is T4, PfRH5 from Plasmodium falciparum strain FCR-1/FVO (Plasmodium falciparum).
In experiment [5] the target is PfRH5 from Plasmodium falciparum strain D10 (Plasmodium falciparum).
Experiment [6] concerns the target PfRH5 from Plasmodium falciparum strain Cam3.II (Plasmodium falciparum).
Experiment [7] deals with PfRH5 from Plasmodium falciparum strain W2-mef (Plasmodium falciparum).
In experiment [8] the target is T1, PfRH5 from Plasmodium falciparum strain …. This is another data set of the same source.
Experiment [9] concerns the target PfRH5 from Plasmodium falciparum strain HB3 (Plasmodium falciparum).
Experiment [10] concerns the target T4, PfRH5 from Plasmodium falciparum strain …. This is another data set of the same source.
Experiment [11] concerns the target PfRH5 from Plasmodium falciparum strain RF7 (Plasmodium falciparum).
Experiment [12] deals with T3, PfRH5 from Plasmodium falciparum strain …. This is another data set of the same source.
Experiment [13] deals with T2, PfRH5 from Plasmodium falciparum strain …. This is another data set of the same source.

B1: H1H29100P (antibody, V domains shown)
VH: QLQLQESGPGLVKPSETLSLTCTVSGGSISSSSYYWGWIRQPPGKGLEWIGIIYYSGSTYYNPSLKSRVTISVDTSKNQFSLKLSSVTAADTAVYYCARQDREALFDYWGQGTLVTVSS
VL: EIVLTQSPDFQSVTPKEKVTITCRASQRIGSSLHWYQQKPDQSPKLLIKYASQSFSGVPSRFSGSGSGTDFTLTINSLEAEDAATYYCHQSSTLPTFGQGTRLEIKR
For B1, the “Max growth inhibition (%), Chloroquine Phosphate N/A” value was 48.9% in experiment [1] and 58% in experiment [2]. The “Maximum growth inhibition (%)” value in experiment [3] amounted to 65.7%. In addition, the “Percent Maximum Growth Inhibition, mAb (6.67 µM) + AHIS (10%)” value in experiment [4] came to 82.5%. The “Percent Maximum Growth Inhibition, mAb (6.67 µM) + ANS (10%)” value in [4] turned out to be 73.2%. In [4], the “Percent Maximum Growth Inhibition, mAb (6.67 µM) + HHIS (10%)” value is 81.9%. For the same molecule, the “Percent Maximum Growth Inhibition, mAb (6.67 µM) + HNS (10%)” value in experiment [4] worked out at 82.4%. In addition, in experiment [4], the “Percent Maximum Growth Inhibition, mAb (6.67 µM) + No serum” value was determined as 83.9%. For the same molecule, the “Max growth inhibition (%)” value is 81.7% in experiment [5]; 52.4% in experiment [6]; 67.3% in experiment [7]; 66.4% in experiment [8]; 62.6% in experiment [9]; 66.9% in [10]. In addition, the “Max growth inhibition (%)” value in experiment [11] is 17%; in experiment [12], 64.6%.

B2: H1H29089P (antibody, V domains shown)
VH: EVQLVQSGAEVKKPGESLKISCKGSGYSFTSYWIVWVRQMPGKGLEWMGIIYPGDSDTRYSPSFQGQVTISADKSISTAYLQWSSLKASDTAMYYCARQDITGTTGFDYWGQGTLVTVSS
VL: DIQMTQSPSSLSASVGDRVTITCRASQSIRNYLNWYQQKPGKAPKLLIYAASSLQSGVPSRFSGSGSGTDFTLTISSLQPEDFATYFCQQSYSTPFTFGPGTKVDIKR
Take B2: the entries for the “Max growth inhibition (%), Chloroquine Phosphate N/A” value in [1] and in experiment [2] were 51.1% and 61.1%, respectively. Also, in [4], the “Percent Maximum Growth Inhibition, mAb (6.67 µM) + AHIS (10%)” value is 84.3%. In addition, in experiment [4], the “Percent Maximum Growth Inhibition, mAb (6.67 µM) + ANS (10%)” value worked out at 75.7%. Also, the “Percent Maximum Growth Inhibition, mAb (6.67 µM) + HHIS (10%)” value in [4] worked out at 85.2%. The “Percent Maximum Growth Inhibition, mAb (6.67 µM) + HNS (10%)” value in experiment [4] worked out at 85%. The “Percent Maximum Growth Inhibition, mAb (6.67 µM) + No serum” value in experiment [4] was 85.3%. The “Max growth inhibition (%)” value in experiment [5] came to 82.3%; in experiment [6], 56.2%; in experiment [7] it was 66.4%; in [8], 70.1%; in experiment [9], 59.1%; in experiment [10], 66%. Besides, the “Max growth inhibition (%)” value in experiment [13] was found to be 67.6%; in experiment [11] it was 28.9%; in experiment [12], 71.3%.

B3: H1H29187P2 (antibody, V domains shown)
VH: QVQLVESGGGVVQPGRFLRLSCAASGFTFSNSGMHWVRQAPGKGLEWVAGIWHDGSYKYYVDSVKGRFTISRDNSKNTLFLQMNSLRAEDTAVYYCARDDYYASGTSVDVWGQGTTVTVSS
VL: not shown
As for B3, the “Max growth inhibition (%), Chloroquine Phosphate N/A” value in [1] was determined as 49.3%; in experiment [2], 47.6%. Moreover, the “Percent Maximum Growth Inhibition, mAb (6.67 µM) + AHIS (10%)” value in experiment [4] worked out at 89.4%. Also, in [4], the “Percent Maximum Growth Inhibition, mAb (6.67 µM) + ANS (10%)” value stood at 80.1%. The “Percent Maximum Growth Inhibition, mAb (6.67 µM) + HHIS (10%)” value in experiment [4] amounted to 85.4%. Further, the “Percent Maximum Growth Inhibition, mAb (6.67 µM) + HNS (10%)” value in [4] worked out at 85.9%. In addition, the “Percent Maximum Growth Inhibition, mAb (6.67 µM) + No serum” value in experiment [4] is 85.3%. The “Max growth inhibition (%)” value in experiment [5] was 79.6%; in [6] it was 49.2%; in [7] it was 67.3%; in [9], 63.9%; in [10], 72.2%; in experiment [13] it was 70.7%. The “Max growth inhibition (%)” value in [11] was 32.7%; in experiment [12], 66%.

B4: H1H29147P2 (antibody, V domains shown)
VH: QVQLVQSGAEVKNPGSSVKVSCKASGGTFSSYTINWVRQAPGQGLEWMGGIIPLYGTANYAQKFQARVTISTDESTNTAYMELSNLRFEDTAVYFCASTLELRAFDAFDIWGQGTMVTVSS
VL: not shown
As for B4, the results for the “Max growth inhibition (%), Chloroquine Phosphate N/A” value in experiment [1] and in experiment [2] were 47.3% and 34.9%, respectively. Besides, the “Percent Maximum Growth Inhibition, mAb (6.67 µM) + AHIS (10%)” value in [4] stood at 86.2%. In addition, the “Percent Maximum Growth Inhibition, mAb (6.67 µM) + ANS (10%)” value in experiment [4] was determined as 80.3%. The “Percent Maximum Growth Inhibition, mAb (6.67 µM) + HHIS (10%)” value in experiment [4] came out at 83.4%. Besides, the “Percent Maximum Growth Inhibition, mAb (6.67 µM) + HNS (10%)” value in [4] is 85.6%. Also, the “Percent Maximum Growth Inhibition, mAb (6.67 µM) + No serum” value in [4] is 84.1%. Moreover, the “Max growth inhibition (%)” value worked out at 81.4% in experiment [5]; 51.9% in [6]; 64.7% in [7]; 65.2% in [8]; 64.8% in [9]; 70.3% in experiment [10]. Further, the “Max growth inhibition (%)” value was found to be 60.3% in [13], 31.4% in experiment [11] and 65.3% in experiment [12].
